How the values were obtained:
[1] = tested on: DSS-induced mouse acute colitis model; experiment: Mouse DSS-induced colitis efficacy model; type: in vivo, Balb/C mice
From the text: Balb/C mice were used to evaluate efficacy in a DSS-induced mouse acute colitis model. DSS refers to Dextran Sulfate Sodium Salt (MW: 36,000-50,000). When added to drinking water at an appropriate concentration, DSS disrupts intestinal epithelial cells and induces acute inflammatory bowel disease (IBD) in mice. Therefore, a 4% DSS-induced mouse IBD model was used to evaluate the potential therapeutic efficacy of the test candidates.
Male Balb/C mice were allowed free access to drinking water containing 4% DSS until the average body weight of the model group decreased by approximately 15%. Fresh drinking water was then provided, followed by a 2-day recovery period. Body weight and the severity of loose stool/hematochezia for each mouse were monitored throughout the study (Figure 13), and a composite Disease Activity Index (DAI) was evaluated (Figure 14). At the endpoint, the colon of each mouse was collected and its length measured (Figure 15). The colons were photographed, rolled into a Swiss-roll configuration, fixed in 4% paraformaldehyde, dehydrated, embedded in paraffin, sectioned, and subjected to H&E staining (Figures 17-18). Histological scoring was performed on tissue morphology(Figure 16).
The dosing regimen of the test candidates was as follows (the day of DSS modeling was defined as D1, the previous day as D-1, and so on). Table 15. Dosing information for the mouse DSS-induced colitis model study
Paraffin sections of colon tissues were subjected to H&E staining and histopathological analysis. According to the actual severity of the lesions, the following scoring criteria were used: minimal (1 point), mild (2 points), moderate (3 points), and severe (4 points). Lesion area (%) scoring criteria were defined as: ≥50% (4 points), 25%-50% (3 points), 10%-25% (2 points), and ≤10% (1 point). Inflammation depth scoring criteria were defined as: epithelium (1 point), lamina propria (2 points), and muscularis mucosae (3 points). No lesion was recorded as "-". The score was calculated by summing the scores from the above three dimensions.

[2] = Mouse PK, plasma concentration by ELISA; type: in vivo; settings: single s.c. 1 mg/kg, male Balb/C mice
Method: Male Balb/C mice (n = 4 per group) were administered a single subcutaneous injection at a dose of 1 mg/kg. Blood samples were collected before dosing and at 4 (no samples were collected at this time point for 60k-PEG-IL22-D109C and 60k-PEG-IL22-P120C), 8, 24, […], 48, 72, 96, and 120 hours after dosing. Anticoagulated blood was used to prepare plasma.
The concentrations of each test candidate in plasma were quantified by ELISA. Anti-IL22 Antibody (Sino Biological, 13059-MM24), diluted in PBS to 2 µg/mL, was used for coating. Standard curves of each test candidate and plasma samples were diluted to fall within the linear range of detection. Recombinant Anti-IL22 Antibody (Sino Biological, 13059-R034-H) was used for detection. The original concentration of each test candidate in the samples was calculated using a four-parameter fit of the standard curve for each test candidate. Pharmacokinetic parameters of each test candidate in mouse plasma were analyzed (Figure 12). Table 13. Dosing information for the mouse PK study

[3] = tested on: STAT3; experiment: STAT3 phosphorylation in HaCaT cells by FACS (tissue activation preference); type: cell-based, Human; settings: STAT3 activation in HT29 vs HaCaT cells
Method: Human immortalized keratinocyte HaCaT cells were recovered and cultured in MEM/EBSS medium (Cytiva, SH30024.01) supplemented with 15% FBS and 1% P/S (Cytiva, SV30010). When cell confluence reached 70%-80%, cells were digested with 0.25% Trypsin-EDTA (Gibco, 25200-056), terminated with complete medium, and resuspended to […]. After mixed thoroughly, a total of 120 µL per well cells was seeded into a 96-well plate (Corning, 3599) at a density of 1.5 × 10^5 cells per well and incubated overnight at 37°C with 5% CO2.
wt IL-22 was prepared at an initial working concentration of 1000 nM, and the remaining samples were prepared at 10000 nM as the starting concentration. […] After staining at room temperature in the dark for 1 hour, cells were washed twice with 1× PBS and analyzed by flow cytometry to determine the mean fluorescence intensity (MFI).
Tissue activation preference of different test candidates was evaluated by comparing their ability to activate STAT3 in intestinal-derived HT29 cells and skin-derived HaCaT cells. […] The activity of PEGylated IL-22 mutants in activating STAT3 phosphorylation in HaCaT cells at different concentrations as determined by FACS is shown in Figure 8. […] Tissue preference of PEG-IL22 mutants for STAT3 phosphorylation in human intestinal and human skin cell lines determined by FACS

B1: 60K-PEG-IL22-P120C: IL-22 cysteine mutant, conjugation site 87, PEG-maleimide 60kD (conjugate)
chain: APISSHCRLDKSNFQQPYITNRTFMLAKEASLADNNTDVRLIGEKLFHGVSMSERCYLMKQVLNFTLEEVLFPQSDRFQPYMQEVVCFLARLSNRLSTCHIEGDDLHIQRNVQKLKDTVKKLGESGEIKAIGELDLLFMSLRNACI
- efficacy compared with 0.03 mg/kg IL-22-Fc (Group G6) ([1]; 0.1 mg/kg (Group G4), body weight, DAI, colon length, histological scoring): superior efficacy
- colon tissue morphology (H&E histology) ([1]; 0.1 mg/kg s.c., days 4 and 6 (G4)): relatively intact
- efficacy dose difference relative to IL-22-Fc ([1]; 0.1 mg/kg vs 0.03 mg/kg): 3 fold
- efficacy in the mouse DSS-induced acute colitis model ([1]; body weight, DAI, colon length, histological scoring): clear efficacy
- AUClast [2]: 105.2029 µg·h/mL
- Cmax [2]: 4184.95 ng/mL
- MRT [2]: 20.17 h
- T1/2 [2]: 11.62 h
- tissue preference compared with IL-22-Fc [3]: superior tissue preference

From EP4786489A1, “IL-22 MUTANT, PREPARATION METHOD THEREFOR, AND USE THEREOF” (Nanjing Novoacine Biotechnology Co., Ltd., priority 2023, dated 2025)
